Results reported in the DeepSol protein solubility set.

Experiment: soluble on expression in E. coli; label from the status in PepcDB or PDB records

Sequence | soluble on expression in E. coli
MTDTQVTWLTQESHDRLKAELDQLIANRPVIAAEINDRREEGDLRENGGYHAAREEQGQQEARIRQLQDLLSNAKVGEAPKQSGVALPGSVVKVYYNGDKSDSETFLIATRQEGVSDGKLEVYSPNSPLGGALIDAKVGETRSYTVPNGSTVSVTLVSAEPYHS | soluble
MTEEFNESMINDIKEGDKVTGEVQQVEDKQVVVHINGGKFNGIIPISQLSTHHIENPSEVVKQGDEIEAYVTKIEVDEENDSGVYILSKRQLETEKSYEYLQEKLDNDEIIEAKVTEVVKGGLVVDVGQRGFVPASLISTDFIEDFSVFDGQTIRIKVEELDPENNRVILSRKAVEQAENDVKKASLLESLNAGDVIKGKVARLTNFGAFVDIGGVDGLVHVSELSHEHVDSPEDVVSVGQEVDVKVKSVEKDAERISLSIKDTLPTPFESIKGQFHEDDVIEGKVVRLANFGAFVEIAPGVQGLVHISEIAHEHIGTPGEKLEPGQQVNVKILGIDEENERISLSIKATLPKEDVVESDDATTQSYLSNDSIEDNPTLGDVFGDKFKDLKF | soluble
MTEIRVHQGDLPNLDNYRIDAVAVDTETLGLQPHRDRLCVVQLSSGDGTADVIQIAKGQKSAPNLVRLLSDRDITKIFHFGRFDLAILAHTFGVMPDVVFCTKIASKLTRTYTDRHGLKEICGELLNVNISKQQQSSDWAAETLSRAQIEYAASDVLYLHRLKDIFEERLKREERESVAKACFQFLPMRANLDLLGWSEIDIFAHS | not soluble
MTELHGECMCGAVTITATPARAALGACHCDMCRRWTSSAYVSFPVEPGYAALGPVKVYGSSDWAERAFCGTCGSVLWYRITLPGKMHGQTQMAAGLFENAGGNALKLELYIDKKPEGYAFAGERRQMTQAEVEAMYAPSDLGDSQ | not soluble
MTENKSFKESHPLDDFISDKELSNTTIQKEKLTIEQQKQVDTISKQINPLDNEGLLAFGSDLQKQMSQFSHQMLDEVQSKDVGPIGDTLSDLMSKLKSVNPNELNTDKPSMLKRIFSRAKSSINEIFSRMQSVSAQVDRITIQLQKHQTHLTRDIELLDTLYDKNKQYFDDLSLHIIAAQQKKLQLENEKLPQLQQQAQQSTNQMDIQQVSDMQQFIDRLDKRIYDLQLSRQIALQTAPQIRMIQNVNQALAEKIQSSILTSIPLWKNQMAIALTLMRQRNAVAAQRAVTDTTNDLLTANAEMLKQNAIETATENERGIVDLDTLKRTQRNIIETIEETLIIQQHGREERQLAEKELQQLEQDLKSHLVNIKGPNKQS | not soluble
MTEQLKDFDVAEHLTSEEEIQLYLNEILQEDNIELILSALGDIARARNMSQIARDAGISREGLYKALSGTGNPTFATVMKVMKALNLQFQVQQSRFA | not soluble
MTETTHVTSCPLNCWDVCGLKVTVNEGKVVRVDGDEHHPITKGNICGRGRMLKERVNAKERLLYPLKKVNGQFVRISWEEALDDIAGKMRKLKEQFGPTAVLHSHDYANNGLLKNLDRRFFNCYGGATELIGSLCWGAGIEAQTWDFGNAYSHAPEDIDNSRHIVIWGRNVARTNMHLFERLLAAKKRGATIVVIDPLFGPTARIADQYVCIKPGMDAFLAMGIMKELLRLGLEDRAFIKQHTIGFDDVKQLLQTISLAEIERHTGVSRDQMTKLARLYGDRPTATYLGLGMQRYANGGNTIRWIDALVAASGNVGIPGGGANFGNLQVGECFDKAALTLPERKTASRTWTMMKQGEEILRADDPPIGMVIVTCGNPLAQVPNTNLMKKAFASIETVVVFEQFMTDTAAMADYVLPVAASFEEEDVYCSSMYHAYLNYGPKLVDPPGEAKPDLWIWTELAKRLGFGDDFAYTREQFLAMALRPLEHHGITLKRLKTEHRVLLPVEPVPWRDRRFQTPSGKYEFTSTIAKKKGMDGRLQIMYPAESEESNPALAAKYPYRLLTIHPLRSNHSQHYPLIPALQTVRIEVAADVAAAKGLADGDRARVYNDRGSLVGTVKVLDGAYPGTINIDEGQWGVFGGPVNVLTSDLESDNGCGSALYDCLVNIEKVTSEAK | soluble
MTEYKLVVVGDGGVGKSALTIQLIQNHFVEEYDPTIEDSYRKQVVIDGETCLLDILDTAGQEEYSAMRDQYMRTGEGFLLVFAVNEAKSFENVANYREQIRRVKDSDDVPMVLVGNKCDLSSRSVDFRTVSETAKGYGIPNVDTSAKTRMGVDEAFYTLVREIRKHRERHDNNKPQKKKKCQIM | not soluble
MTEYNIGAKIKKLRLAKKLTLQAVARETGFSPALISQIENNNVSPPIATLSKIAKFFDVKISLFFSEDEEEYRYEVVRRGERKVIPRVISRAGTSQGYSYESLSFRKQNKKMEPFLLTVTEKAAEENTYNHDGEEFLFVMKGTAELLLEDERVILEEGDCVYFDSSLKHRLLSRDGSEVQVLAVVTR | not soluble
MTFLIKRETQVDQILRDIRAVVNQMVPKEAKITEIEFEGPELVIYVKNPEAIMKDGELIKDLAKVLKKRISVRPDPEVLLPPEEAEKLIFEIVPKEAEITNIAFDPSVGEVLIEAKKPGLVIGKNGETLRLITQKVKWAPKVVRTPPLQSQTIYSIRQILQTESKDRRKFLRQVGRNIYRKPEYKSRWIRITGLGGFREVGRSALLVQTDESFVLVDFGVNVAMLNDPYKAFPHFDAPEFQYVLREGLLDAIIITHAHLDHCGMLPYLFRYNLFDGPIYTTPPTRDLMVLLQKDFIEIQQSNGQDPLYRPRDIKEVIKHTITLDYGEVRDISPDIRLTLHNAGHILGSAIVHLHIGNGLHNIAITGDFKFIPTRLLEPANAKFPRLETLVMESTYGGANDIQMPREEAEKRLIEVIHNTIKRGGKVLIPAMAVGRAQEVMMVLEEYARIGGIEVPIYLDGMIWEATAIHTAYPEYLSRRLREQIFKEGYNPFLSEIFHPVANSRERQDIIDSNEPAIIIASSGMLVGGPSVEYFKQLAPDPKNSIIFVSYQAEGTLGRQVQSGIREIPMVGEEGRTEVIKVNMEVHTIDGFSGHADRRELMNYVAKVRPRPERIITVHGEPQKCLDLATSIHRKFGISTRAPNNLDTIRLR | soluble
MTGSVVVAGLGPGAQELITPEVSAALALATDIVGYAPYVARVAERDGLQRHASDNREELDRAGFALRLATEGRHVVIVSSGDPGVFAMAAALFEAIEAGDPSWRELDIRVLPGIS | not soluble
MTGTYTELIEGSERLSGLTDVDEVIKDLSRLLRKLVKTRWIAVYFFDRERRDFAPARSTGLPASFLPVFREMPLAPDKIPLLKSMLRKRQHLMLTDPGSSDLLTPKLRKLLRNLCVLAVPMVVRTQVIGAVFMARTRDNPPFSDAETAIIRDLVSHAALVVSHMQLFDE | not soluble
MTGVLVGCSVEKTNTNKVNIDKVEIVAPNVQGAGWDLTARAMQKTLTEEKIFTKPITVTNKVGGSGDVGWKYTKQKGGHVLAINSSLLITNNLLGHSKLTYKDFTPLATLASDWEVVVVSKDSNIENANQLMEQLKQNKKNFKIGVAPGLGNDDHLSFVQVSKAFGINPAELQFFVYENKEKIISALTNKQINAATMTLSEAEKQYKAGKIKILAVSAPKRIDRLPQIPTWKEQGIDVIFQHWKGIMGPKDMTEEEVAYWDDVIKRMVESDSWKGILRERGWESFYKGSGESSGWYGGMIKTEKVDEEGSYRMRFLGLFIGNLIYS | not soluble
MTHELISLPYAVDALAPVISKETVEFHHGKHLKTYVDNLNKLIIGTEFENADLNTIVQKSEGGIFNNAGQTLNHNLYFTQFRPGKGGAPKGKLGEAIDKQFGSFEKFKEEFNTAGTTLFGSGWVWLASDANGKLSIEKEPNAGNPVRKGLNPLLGFDVWEHAYYLTYQNRRADHLKDLWSIVDWDIVESRY | soluble
MTHRPELHVTPEIGILDAPAGALFDGTRWHLFHQFRPKATAPSRWAHDYATTDPFNWEICDDVIAPQGDEIRLRAGSVTSDGKTTRLYFTSITNEGDSIHLAEITDLDATTYDVNDDATTTDPHVTRLGQVVADQGGYTNFRSPCVVPNWVTADDRDEGHSGWIMLAVTGDMDEPTLVILDSENGTDWELRGPLKVVGNSGIEAERPVAPRIIRLRDEIDQNVYDILIVTIEIGGIDRSGYLVGKLHNNIFTVVSPFTRIDYGHDFTRPRNTNYTSHLNSSVAPEHRYSHAHVFGLMNGIGRLDDATTHLSFREEQWANCLSLPRRMTLQGGKIYHTPVAGLPDAIRDSDHAIMWTGLLDVPLGEKVTVELVDTTGNIAAKITHYGDLLELDRSMNPHHEGDDIAVAPLTEDDTDSVTIIVDGSTVEVFADGGQIAMASRVYFNGYCEAFTPQASDGADILRSDVTKPLG | not soluble
